Assay results: US20220089698A1 (published 2022)

Legend:
HIV gp120 Bal = HIV gp120 Bal (HIV); experiment: single-point ELISA; further: test concentration or dose not given here
HIV gp120 CAAN = HIV gp120 CAAN (HIV); experiment: single-point ELISA; further: test concentration or dose not given here

| Binder | ELISA (A450) (HIV gp120 Bal) | ELISA (A450) (HIV gp120 CAAN) |
| --- | --- | --- |
| 1.1.36-1 (antibody, human IgG1, kappa) heavy: QVQLLQSGAAVTKPGASVRVSCEASGYNIRDYFIHWWRQAPGQGLQWVGWINPKTGQPNNPRQFQGRVSLTRHASWDFDTFSFYMDLKALRSDDTAVYFCARQRSDYWDFDVWGSGTQVTVSSASTKGPSVFPLAPSSKSTSGGTAALGCLVKDYFPEPVTVSWNSGALTSGVHTFPAVLQSSGLYSLSSVVTVPSSSLGTQTYICNVNHKPSNTKVDKKVEPKSCDKTHTCPPCPAPELLAGPDVFLFPPKPKDTLMISRTPEVTCVVVDVSHEDPEVKFNWYVDGVEVHNAKTKPREEQYNSTYRVVSVLTVLHQDWLNGKEYKCKVSNKALPLPEEKTISKAKGQPREPQVYTLPPSREEMTKNQVSLTCLVKGFYPSDIAVEWESNGQPENNYKTTPPVLDSDGSFFLYSKLTVDKSRWQQGNVFSCSVLHEALHSHYTQKSLSLSPGK light: DIQMTQSPSSLSASVGDRVTITCQANGYLNWYQQKPGKAPKLLIYDGSNLETGVPSRFSGSRWGQEYTLTISSLQPEDIATYFCQVYEFVTPGTNLDIKRTVAAPSVFIFPPSDEQLKSGTASVVCLLNNFYPREAKVQWKVDNALQSGNSQESVTEQDSKDSTYSLSSTLTLSKADYEKHKVYACEVTHQGLSSPVTKSFNRGEC | 0.93 | 0.88 |
| 1.31.36-1 (antibody, human IgG1, kappa) heavy: QVQLVQSGAEVTKPGASVRVSCEASGYNIRDYFIHWWRQAPGQGLQWVGWINPKTGQPNNPRQFQGRVSLTRHASWDFDTFSFYMDLKALRSDDTATYFCARQRSDYWDFDVWGSGTQVTVSSASTKGPSVFPLAPSSKSTSGGTAALGCLVKDYFPEPVTVSWNSGALTSGVHTFPAVLQSSGLYSLSSVVTVPSSSLGTQTYICNVNHKPSNTKVDKKVEPKSCDKTHTCPPCPAPELLAGPDVFLFPPKPKDTLMISRTPEVTCVVVDVSHEDPEVKFNWYVDGVEVHNAKTKPREEQYNSTYRVVSVLTVLHQDWLNGKEYKCKVSNKALPLPEEKTISKAKGQPREPQVYTLPPSREEMTKNQVSLTCLVKGFYPSDIAVEWESNGQPENNYKTTPPVLDSDGSFFLYSKLTVDKSRWQQGNVFSCSVLHEALHSHYTQKSLSLSPGK light: DIQMTQSPSSLSASVGDRVTITCQANGYLNWYQQKPGKAPKLLIYDGSNLETGVPSRFSGSRWGQEYTLTISSLQPEDIATYFCQVYEFVTPGTNLDIKRTVAAPSVFIFPPSDEQLKSGTASVVCLLNNFYPREAKVQWKVDNALQSGNSQESVTEQDSKDSTYSLSSTLTLSKADYEKHKVYACEVTHQGLSSPVTKSFNRGEC | 1.06 | 0.9 |
| 1.32.36-1 (antibody, human IgG1, kappa) heavy: QVQLVQSGAEVTKPGASVRVSCEASGYNIRDYFIHWWRQAPGQGLQWVGWINPKTGQPNNPRQFQGRVSLTRHASWDFDTFSFYMDLKALRSDDTAVYFCARQRTDYWDFDVWGSGTQVTVSSASTKGPSVFPLAPSSKSTSGGTAALGCLVKDYFPEPVTVSWNSGALTSGVHTFPAVLQSSGLYSLSSVVTVPSSSLGTQTYICNVNHKPSNTKVDKKVEPKSCDKTHTCPPCPAPELLAGPDVFLFPPKPKDTLMISRTPEVTCVVVDVSHEDPEVKFNWYVDGVEVHNAKTKPREEQYNSTYRVVSVLTVLHQDWLNGKEYKCKVSNKALPLPEEKTISKAKGQPREPQVYTLPPSREEMTKNQVSLTCLVKGFYPSDIAVEWESNGQPENNYKTTPPVLDSDGSFFLYSKLTVDKSRWQQGNVFSCSVLHEALHSHYTQKSLSLSPGK light: DIQMTQSPSSLSASVGDRVTITCQANGYLNWYQQKPGKAPKLLIYDGSNLETGVPSRFSGSRWGQEYTLTISSLQPEDIATYFCQVYEFVTPGTNLDIKRTVAAPSVFIFPPSDEQLKSGTASVVCLLNNFYPREAKVQWKVDNALQSGNSQESVTEQDSKDSTYSLSSTLTLSKADYEKHKVYACEVTHQGLSSPVTKSFNRGEC | 0.92 | 0.64 |
| 1.33.36-1 (antibody, human IgG1, kappa) heavy: QVQLVQSGAEVKKPGASVRVSCKASGYNIRDYFIHWWRQAPGQGLQWVGWINPKTGQPNNPRQFQGRVTLTRHASWDFDTFSFYMDLKALRSDDTATYFCARQRSDYWDFDVWGSGTQVTVSSASTKGPSVFPLAPSSKSTSGGTAALGCLVKDYFPEPVTVSWNSGALTSGVHTFPAVLQSSGLYSLSSVVTVPSSSLGTQTYICNVNHKPSNTKVDKKVEPKSCDKTHTCPPCPAPELLAGPDVFLFPPKPKDTLMISRTPEVTCVVVDVSHEDPEVKFNWYVDGVEVHNAKTKPREEQYNSTYRVVSVLTVLHQDWLNGKEYKCKVSNKALPLPEEKTISKAKGQPREPQVYTLPPSREEMTKNQVSLTCLVKGFYPSDIAVEWESNGQPENNYKTTPPVLDSDGSFFLYSKLTVDKSRWQQGNVFSCSVLHEALHSHYTQKSLSLSPGK light: DIQMTQSPSSLSASVGDRVTITCQANGYLNWYQQKPGKAPKLLIYDGSNLETGVPSRFSGSRWGQEYTLTISSLQPEDIATYFCQVYEFVTPGTNLDIKRTVAAPSVFIFPPSDEQLKSGTASVVCLLNNFYPREAKVQWKVDNALQSGNSQESVTEQDSKDSTYSLSSTLTLSKADYEKHKVYACEVTHQGLSSPVTKSFNRGEC | 0.94 | 0.82 |
| 1.34.36-1 (antibody, human IgG1, kappa) heavy: QVQLVQSGAEVKKPGASVRVSCKASGYNIRDYFIHWWRQAPGQGLQWVGWINPKTGQPNNPRQFQGRVTLTRHASWDFDTFSFYMDLKALRSDDTAVYFCARQRTDYWDFDVWGSGTQVTVSSASTKGPSVFPLAPSSKSTSGGTAALGCLVKDYFPEPVTVSWNSGALTSGVHTFPAVLQSSGLYSLSSVVTVPSSSLGTQTYICNVNHKPSNTKVDKKVEPKSCDKTHTCPPCPAPELLAGPDVFLFPPKPKDTLMISRTPEVTCVVVDVSHEDPEVKFNWYVDGVEVHNAKTKPREEQYNSTYRVVSVLTVLHQDWLNGKEYKCKVSNKALPLPEEKTISKAKGQPREPQVYTLPPSREEMTKNQVSLTCLVKGFYPSDIAVEWESNGQPENNYKTTPPVLDSDGSFFLYSKLTVDKSRWQQGNVFSCSVLHEALHSHYTQKSLSLSPGK light: DIQMTQSPSSLSASVGDRVTITCQANGYLNWYQQKPGKAPKLLIYDGSNLETGVPSRFSGSRWGQEYTLTISSLQPEDIATYFCQVYEFVTPGTNLDIKRTVAAPSVFIFPPSDEQLKSGTASVVCLLNNFYPREAKVQWKVDNALQSGNSQESVTEQDSKDSTYSLSSTLTLSKADYEKHKVYACEVTHQGLSSPVTKSFNRGEC | 0.94 | 0.71 |
| 1.35.36-1 (antibody, human IgG1, kappa) heavy: QVQLVQSGAEVKKPGASVRVSCKASGYNIRDYFMHWWRQAPGQGLQWVGWINPKTGQPNNPRQFQGRVTMTRHASWDFDTFSFYMDLSRLRSDDTATYFCARQRTDYWDFDVWGQGTMVTVSSASTKGPSVFPLAPSSKSTSGGTAALGCLVKDYFPEPVTVSWNSGALTSGVHTFPAVLQSSGLYSLSSVVTVPSSSLGTQTYICNVNHKPSNTKVDKKVEPKSCDKTHTCPPCPAPELLAGPDVFLFPPKPKDTLMISRTPEVTCVVVDVSHEDPEVKFNWYVDGVEVHNAKTKPREEQYNSTYRVVSVLTVLHQDWLNGKEYKCKVSNKALPLPEEKTISKAKGQPREPQVYTLPPSREEMTKNQVSLTCLVKGFYPSDIAVEWESNGQPENNYKTTPPVLDSDGSFFLYSKLTVDKSRWQQGNVFSCSVLHEALHSHYTQKSLSLSPGK light: DIQMTQSPSSLSASVGDRVTITCQANGYLNWYQQKPGKAPKLLIYDGSNLETGVPSRFSGSRWGQEYTLTISSLQPEDIATYFCQVYEFVTPGTNLDIKRTVAAPSVFIFPPSDEQLKSGTASVVCLLNNFYPREAKVQWKVDNALQSGNSQESVTEQDSKDSTYSLSSTLTLSKADYEKHKVYACEVTHQGLSSPVTKSFNRGEC | 0.85 | 0.67 |
| 1.36.36-1 (antibody, human IgG1, kappa) heavy: QVQLVQSGAEVKKPGASVRVSCKASGYNIRDYFMHWWRQAPGQGLQWVGWINPKTGQPNNPRQFQGRVTMTRHASWDFDTFSAYMDLSRLRSDDTATYFCARQRTDYWDFDVWGQGTMVTVSSASTKGPSVFPLAPSSKSTSGGTAALGCLVKDYFPEPVTVSWNSGALTSGVHTFPAVLQSSGLYSLSSVVTVPSSSLGTQTYICNVNHKPSNTKVDKKVEPKSCDKTHTCPPCPAPELLAGPDVFLFPPKPKDTLMISRTPEVTCVVVDVSHEDPEVKFNWYVDGVEVHNAKTKPREEQYNSTYRVVSVLTVLHQDWLNGKEYKCKVSNKALPLPEEKTISKAKGQPREPQVYTLPPSREEMTKNQVSLTCLVKGFYPSDIAVEWESNGQPENNYKTTPPVLDSDGSFFLYSKLTVDKSRWQQGNVFSCSVLHEALHSHYTQKSLSLSPGK light: DIQMTQSPSSLSASVGDRVTITCQANGYLNWYQQKPGKAPKLLIYDGSNLETGVPSRFSGSRWGQEYTLTISSLQPEDIATYFCQVYEFVTPGTNLDIKRTVAAPSVFIFPPSDEQLKSGTASVVCLLNNFYPREAKVQWKVDNALQSGNSQESVTEQDSKDSTYSLSSTLTLSKADYEKHKVYACEVTHQGLSSPVTKSFNRGEC | 1.12 | 0.34 |
| Antibody A-1 (antibody, human IgG1, kappa) heavy: QVQLLQSGAAVTKPGASVRVSCEASGYNIRDYFIHWWRQAPGQGLQWVGWINPKTGQPNNPRQFQGRVSLTRHASWDFDTFSFYMDLKALRSDDTAVYFCARQRSDYWDFDVWGSGTQVTVSSASTKGPSVFPLAPSSKSTSGGTAALGCLVKDYFPEPVTVSWNSGALTSGVHTFPAVLQSSGLYSLSSVVTVPSSSLGTQTYICNVNHKPSNTKVDKKVEPKSCDKTHTCPPCPAPELLAGPDVFLFPPKPKDTLMISRTPEVTCVVVDVSHEDPEVKFNWYVDGVEVHNAKTKPREEQYNSTYRVVSVLTVLHQDWLNGKEYKCKVSNKALPLPEEKTISKAKGQPREPQVYTLPPSREEMTKNQVSLTCLVKGFYPSDIAVEWESNGQPENNYKTTPPVLDSDGSFFLYSKLTVDKSRWQQGNVFSCSVLHEALHSHYTQKSLSLSPGK light: DIQMTQSPSSLSASVGDTVTITCQANGYLNWYQQRRGKAPKLLIYDGSKLERGVPSRFSGRRWGQEYNLTINNLQPEDIATYFCQVYEFVVPGTRLDLKRTVAAPSVFIFPPSDEQLKSGTASVVCLLNNFYPREAKVQWKVDNALQSGNSQESVTEQDSKDSTYSLSSTLTLSKADYEKHKVYACEVTHQGLSSPVTKSFNRGEC | 0.91 | 1.06 |
| 1.2.2-1 (antibody, human IgG1) heavy: QVQLLQSGAEVKKPGASVRVSCEASGYNIRDYFIHWWRQAPGQGLQWVGWINPKTGQPNNPRQFQGRVSLTRHASWDFDTFSFYMDLKALRSDDTAVYFCARQRSDYWDFDVWGSGTMVTVSSASTKGPSVFPLAPSSKSTSGGTAALGCLVKDYFPEPVTVSWNSGALTSGVHTFPAVLQSSGLYSLSSVVTVPSSSLGTQTYICNVNHKPSNTKVDKKVEPKSCDKTHTCPPCPAPELLAGPDVFLFPPKPKDTLMISRTPEVTCVVVDVSHEDPEVKFNWYVDGVEVHNAKTKPREEQYNSTYRVVSVLTVLHQDWLNGKEYKCKVSNKALPLPEEKTISKAKGQPREPQVYTLPPSREEMTKNQVSLTCLVKGFYPSDIAVEWESNGQPENNYKTTPPVLDSDGSFFLYSKLTVDKSRWQQGNVFSCSVLHEALHSHYTQKSLSLSPGK VL: DIQMTQSPSSLSASVGDTVTITCQANGYLNWYQQKPGKAPKLLIYDGSKLERGVPSRFSGRRWGQEYNLTINNLQPEDIATYFCQVYEFVVPGTKVDIK | 0.91 | 0.8 |
